PMC3855848 (Chemistry & biology, 2013)
Residue numbers refer to the chain shown, from its start. Names and notes keep the numbering of the source. Values belong to the molecule of their own block, whether it stands above or below them.

Key:
[1] = molecular target: actKR (actinorhodin type II polyketide ketoreductase) (Streptomyces coelicolor, UniProt P16544, R220A); test: NADPH fluorescence titration; format: binding
[2] = molecular target: actKR (actinorhodin type II polyketide ketoreductase) (Streptomyces coelicolor, UniProt P16544, R177A); test: NADPH fluorescence titration; format: binding
[3] = molecular target: actKR (actinorhodin type II polyketide ketoreductase) (Streptomyces coelicolor, UniProt P16544, R93A); test: NADPH fluorescence titration; format: binding
[4] = molecular target: actKR (actinorhodin type II polyketide ketoreductase) (Streptomyces coelicolor, UniProt P16544); test: NADPH fluorescence titration; format: binding
[5] = molecular target: actKR (actinorhodin type II polyketide ketoreductase) (Streptomyces coelicolor, UniProt P16544, R65A); test: NADPH fluorescence titration; format: binding
[6] = molecular target: actKR (actinorhodin type II polyketide ketoreductase) (Streptomyces coelicolor, UniProt P16544, R38A); test: NADPH fluorescence titration; format: binding
purified protein = substrate: O=C1CCC[C@H]2CCCC[C@H]12; test: purified protein; format: biochemical, Streptomyces coelicolor; settings: co-substrate NADPH

actKR (actinorhodin type II polyketide ketoreductase) (Streptomyces coelicolor, UniProt P16544), sequence (P16544 whole entry): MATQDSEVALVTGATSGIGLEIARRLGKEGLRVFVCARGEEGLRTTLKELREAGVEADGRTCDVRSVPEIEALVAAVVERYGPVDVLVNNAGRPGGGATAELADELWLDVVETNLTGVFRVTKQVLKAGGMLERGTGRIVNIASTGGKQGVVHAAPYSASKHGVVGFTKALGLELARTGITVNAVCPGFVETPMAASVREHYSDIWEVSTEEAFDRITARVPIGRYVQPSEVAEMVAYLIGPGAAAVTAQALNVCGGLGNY
actKR (actinorhodin type II polyketide ketoreductase) (Streptomyces coelicolor, UniProt P16544, R220A), sequence (P16544 whole entry R220A): as the sequence (P16544 whole entry) above, with R220A counted along it
actKR (actinorhodin type II polyketide ketoreductase) (Streptomyces coelicolor, UniProt P16544, R65A), sequence (P16544 whole entry R65A): as the sequence (P16544 whole entry) above, with R65A counted along it
actKR (actinorhodin type II polyketide ketoreductase) (Streptomyces coelicolor, UniProt P16544, R93A), sequence (P16544 whole entry R93A): as the sequence (P16544 whole entry) above, with R93A counted along it
actKR (actinorhodin type II polyketide ketoreductase) (Streptomyces coelicolor, UniProt P16544, R38A), sequence (P16544 whole entry R38A): as the sequence (P16544 whole entry) above, with R38A counted along it
actKR (actinorhodin type II polyketide ketoreductase) (Streptomyces coelicolor, UniProt P16544, R177A), sequence (P16544 whole entry R177A): as the sequence (P16544 whole entry) above, with R177A counted along it

Kd [1]: 1990 ± 160 nM | Kd [2]: 1170 ± 100 nM | Kd [3]: 6430 ± 680 nM | Kd [4]: 1520 ± 90 nM | Kd [5]: 1830 ± 210 nM | Kd [6]: 4300 ± 400 nM
Molecule: NC(=O)C1=CN([C@@H]2O[C@H](COP(=O)(O)OP(=O)(O)OC[C@H]3O[C@@H](n4cnc5c(N)ncnc54)[C@H](OP(=O)(O)O)[C@@H]3O)[C@@H](O)[C@H]2O)C=CC1 [NADPH]

B1: actKR (actinorhodin type II polyketide ketoreductase) (Streptomyces coelicolor A3(2); F189A) (protein)
chain: MATQDSEVALVTGATSGIGLEIARRLGKEGLRVFVCARGEEGLRTTLKELREAGVEADGRTCDVRSVPEIEALVAAVVERYGPVDVLVNNAGRPGGGATAELADELWLDVVETNLTGVFRVTKQVLKAGGMLERGTGRIVNIASTGGKQGVVHAAPYSASKHGVVGFTKALGLELARTGITVNAVCPGAVETPMAASVREHYSDIWEVSTEEAFDRITARVPIGRYVQPSEVAEMVAYLIGPGAAAVTAQALNVCGGLGNY
Km (purified protein): 8630 ± 2010 µM | kcat (purified protein): 0.049 ± 0.005 s⁻¹ | kcat/Km (purified protein): 5.7 ± 1.5 M⁻¹ s⁻¹

B2: actKR (actinorhodin type II polyketide ketoreductase) (Streptomyces coelicolor A3(2); M194W) (protein)
chain: B1 chain with A189F, M194W
Km (purified protein): 3220 ± 650 µM | kcat (purified protein): 0.43 ± 0.06 s⁻¹ | kcat/Km (purified protein): 130 ± 30 M⁻¹ s⁻¹

B3: actKR (actinorhodin type II polyketide ketoreductase) (Streptomyces coelicolor A3(2); D109R) (protein)
chain: B1 chain with D109R, A189F
Km (purified protein): 1250 ± 400 µM | kcat (purified protein): 0.078 ± 0.01 s⁻¹ | kcat/Km (purified protein): 62 ± 21 M⁻¹ s⁻¹

B4: actKR (actinorhodin type II polyketide ketoreductase) (Streptomyces coelicolor A3(2); T145A) (protein)
chain: B1 chain with T145A, A189F
Km (purified protein): 420 ± 60 µM | kcat (purified protein): 0.18 ± 0.008 s⁻¹ | kcat/Km (purified protein): 420 ± 60 M⁻¹ s⁻¹

B5: actKR (actinorhodin type II polyketide ketoreductase) (Streptomyces coelicolor A3(2); V198A) (protein)
chain: B1 chain with A189F, V198A
Km (purified protein): 15500 ± 1490 µM | kcat (purified protein): 0.24 ± 0.01 s⁻¹ | kcat/Km (purified protein): 16 ± 2 M⁻¹ s⁻¹

B6: actKR (actinorhodin type II polyketide ketoreductase) (Streptomyces coelicolor A3(2)) (protein)
chain: B1 chain with A189F
Km (purified protein): 760 ± 90 µM | kcat (purified protein): 2.55 ± 0.12 s⁻¹ | kcat/Km (purified protein): 3230 ± 320 M⁻¹ s⁻¹
